Results taken from article doi:10.1101/388868, “Heterodimerization of UNC-13/RIM regulates synaptic vesicle release probability but not priming” (bioRxiv, 2018).
Residue numbers refer to the chain shown, from its start. Numbers in names are those of the source.

T1: C. elegans UNC-13 long isoform residues 1-258 bearing the K49E mutation (C. elegans)
T1 chain: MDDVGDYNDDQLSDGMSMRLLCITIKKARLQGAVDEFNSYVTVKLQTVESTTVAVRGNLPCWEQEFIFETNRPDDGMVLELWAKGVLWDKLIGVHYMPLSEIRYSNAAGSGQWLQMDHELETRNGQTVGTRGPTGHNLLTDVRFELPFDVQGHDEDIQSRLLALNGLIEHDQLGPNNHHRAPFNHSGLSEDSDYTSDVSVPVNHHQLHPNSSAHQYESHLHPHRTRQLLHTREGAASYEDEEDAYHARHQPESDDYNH

B1: C. elegans UNC-10 residues 62-121 WT (domain or fragment)
chain: KLVGTQDDAICQICQKTKFADGIGHKCFYCQLRSCARCGGRAQSKNKAIWACSLCQKRQQ
B2: UNC-13L C2A domain, wild type (recombinant, gel filtration) (domain or fragment)
chain: T1 chain with E49K

What was measured:
[1] = biological target: T1, C. elegans UNC-13 long isoform residues …; experiment: ITC
[2] = biological target: the molecule itself; experiment: SEC; gel filtration of purified UNC-13L C2A, wild type or K49E; calibrated with alcohol dehydrogenase (150 kDa), bovine serum albumin (66 kDa) and carbonic anhydrase (29 kDa); void volume 10.78mL

Row | Binder | Ka [1] | stoichiometry N [2]
1 | B1 | 789000 M⁻¹ | –
2 | B2 | – | 2
